Laboratory results published in article PMC12264150, “A chromatin-remodeling-independent role for ATRX in protecting centromeric cohesion” (The EMBO Journal, 2025).
Residue numbers refer to the chain shown, from its start.

T1: MBP-Pds5B (1–300) (UniProt Q9NTI5 1-300)
T1 construct: Pds5B residues 1–300, in pMAL-C2E; also called recombinant MBP-Pds5B (1–300); purified MBP-Pds5B; source: E. coli BL21 (DE3), purified (Amylose Resin); not shown: MBP, N-terminal, kept
T1 sequence (looked up): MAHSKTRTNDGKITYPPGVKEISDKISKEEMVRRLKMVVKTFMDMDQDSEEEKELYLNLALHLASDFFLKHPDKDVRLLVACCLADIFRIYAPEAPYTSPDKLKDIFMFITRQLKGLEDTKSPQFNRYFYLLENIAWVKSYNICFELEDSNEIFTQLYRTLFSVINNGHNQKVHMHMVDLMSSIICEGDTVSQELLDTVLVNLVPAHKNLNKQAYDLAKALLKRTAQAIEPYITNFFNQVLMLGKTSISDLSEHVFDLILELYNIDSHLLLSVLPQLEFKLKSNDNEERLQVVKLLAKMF

T2: GST-Pds5B (1–300) (UniProt Q9NTI5 1-300)
T2 construct: Pds5B residues 1–300, in pGEX-4T1; also called GST-fused Pds5B (1–300) fragment; GST-Pds5B (1–300) WT; source: E. coli BL21 (DE3), purified (Glutathione Sepharose 4B); not shown: GST, N-terminal, kept
T2 sequence (looked up): T1 sequence (looked up)

B1: Wapl (1–28)-GST (domain or fragment, UniProt Q7Z5K2 1-28, looked up)
chain: MTSRFGKTYSRKGGNGSSKFDEVFSNKR
notes: Wapl residues 1–28, in pETGEX-CT; also called short Wapl fragment (residues 1–28) containing the YSR motif; Wapl (1–28)-GST WT; source: E. coli BL21 (DE3), purified (Glutathione Sepharose 4B); not shown: GST, C-terminal, kept
B2: GFP-ATRX (1394–1443)-2xStrep (domain or fragment, UniProt P46100 1394-1443, looked up)
chain: SESEDEQRPRTRSAKKAELEENQRSYKQKKKRRRIKVQEDSSSENKSNSE
notes: source: E. coli BL21 (DE3), purified (Strep-Tactin Superflow); not shown: GFP, N-terminal, kept; 2xStrep, C-terminal, kept
B3: GFP-ATRX (1394–1443)-2xStrep E1414A (domain or fragment, UniProt P46100 1394-1443, looked up)
chain: B2 chain with E21A
notes: as for B2
B4: GFP-ATRX (1394–1443)-2xStrep Q1416A (domain or fragment, UniProt P46100 1394-1443, looked up)
chain: B2 chain with Q23A
notes: as for B2
B5: GFP-ATRX (1394–1443)-2xStrep K1420A (domain or fragment, UniProt P46100 1394-1443, looked up)
chain: B2 chain with K27A
notes: as for B2
B6: GFP-ATRX (1394–1443)-2xStrep Q1421A (domain or fragment, UniProt P46100 1394-1443, looked up)
chain: B2 chain with Q28A
notes: as for B2
B7: GFP-ATRX (1394–1443)-2xStrep S1418A (domain or fragment, UniProt P46100 1394-1443, looked up)
chain: B2 chain with S25A
notes: as for B2
B8: GFP-ATRX (1394–1443)-2xStrep E1413A (domain or fragment, UniProt P46100 1394-1443, looked up)
chain: B2 chain with E20A
notes: as for B2
B9: GFP-ATRX (1394–1443)-2xStrep R1417A (domain or fragment, UniProt P46100 1394-1443, looked up)
chain: B2 chain with R24A
notes: as for B2
B10: GFP-ATRX (1394–1443)-2xStrep N1415A (domain or fragment, UniProt P46100 1394-1443, looked up)
chain: B2 chain with N22A
notes: as for B2

Legend:
MBP-Pds5B (1–300) = target: T1, MBP-Pds5B (1–300); assay: pull-down; competitive: purified MBP-Pds5B (1–300) mixed with GFP-2xStrep or increasing amounts of GFP-ATRX (1394–1443)-2xStrep (WT or Y1419A), pulled down with Wapl (1–28)-GST; conditions: both partners purified
GST-Pds5B (1–300) = target: T2, GST-Pds5B (1–300); assay: pull-down; recombinant GFP-ATRX (1394–1443)-2xStrep (wild-type or mutants) pulled down with GST or GST-Pds5B (1–300); immunoblot for GFP and CBB; conditions: both partners purified

Row | Binder | binding result (MBP-Pds5B (1–300)) | binding result (GST-Pds5B (1–300))
1 | B1 | binds | 
2 | B2 | binds | binds
3 | B3 |  | binds
4 | B4 |  | binds
5 | B5 |  | binds
6 | B6 |  | binds
7 | B7 |  | binds
8 | B8 |  | binds
9 | B9 |  | binds
10 | B10 |  | binds
